T1: Peptide-6b
T1 chain: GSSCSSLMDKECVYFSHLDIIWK

T2: Peptide-5 (not fully specified)
T2 chain: CDRVYIHPFHLK

T3: Peptide-6a
T3 chain: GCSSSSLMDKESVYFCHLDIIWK

T4: Peptide-13 (not fully specified)
T4 chain: CRPPGFSPFRK

T5: Peptide-3
T5 chain: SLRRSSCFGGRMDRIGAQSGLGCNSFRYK

T6: Peptide-8 (not fully specified)
T6 chain: CQLYENKPRRPYILK


Experiments:
[1] = biological target: T1, Peptide-6b
[2] = biological target: Peptide-2
[3] = biological target: Peptide-1
[4] = biological target: T2, Peptide-5
[5] = biological target: T3, Peptide-6a
[6] = biological target: T4, Peptide-13
[7] = biological target: Peptide-7
[8] = biological target: T5, Peptide-3
[9] = biological target: Peptide-4
[10] = biological target: T6, Peptide-8

Row | Protein | kapp ratio vs G399V/G714K (B1) [1] [fold] | kapp ratio vs G399V/G714K (B1) [2] [fold] | kapp ratio vs G399V/G714K (B1) [3] [fold] | kapp ratio vs G399V/G714K (B1) [4] [fold] | kapp ratio vs G399V/G714K (B1) [5] [fold] | kapp ratio vs G399V/G714K (B1) [6] [fold] | kapp ratio vs G399V/G714K (B1) [7] [fold] | kapp ratio vs G399V/G714K (B1) [8] [fold] | kapp ratio vs G399V/G714K (B1) [9] [fold] | kapp ratio vs G399V/G714K (B1) [10] [fold]
1 | C16 (protein) YPYDVPDYAYPYDVPDYAYPYDVPDYAGSYDDGICKSSDCIKSAARLIQNMDATTEPCTDFFKYACGGWLKRNVIPETSSRYGNFDILRDELEVVLKDVLQEPKTEDIVAVQKAKALYRSCINESAIDSRGGEPLLKLLPDIYGWPVATENWEQKYGASWTAEKAIAQLNSKYGKKVLINLFVGTDDKNSVNHVIHIDQPRLGLPSGDYYECTGIYKEACTAYVDFMISVARLIRQEERLPIDENQLALEMNKVMELEKEIANATAKPEDRNDPMLLYNKMTLAQIQNNFSLEINGKPFSWLNFTNEIMSTVNISITNEEDVVVYAPEYLTKLKPILTKYSARDLQNLMSWRFIMDLVSSLSRTYKESRNAFRKALYVTTSETATWRRCANYVNGNMMNAVGRLYVEAAFAGESKHVVEDLIAQIREVFIQTLDDLTWMDAETKKRAEEKALAIKERIGYPDDIVSNDNKLNNEYLELNYKEDEYFENIIQNLKFSQSKQLKKLREKVDKDEWISGAAVVNAFYSSGRNQIVFPAGILQPPFFSAQQSNSLNYGGIGMVIGHEITHGFMDNVRNPNKDWDLVDWWTQQSASNFKEQSQCMVYQYGNFSWDLAGGQHLNGINTLGENIADNGGLGQAYRAYQNYIKKNGEEKLLPGLDLNHKQLFFLNFAQVWCGTYRPEYAVNSIKTDVHSPKNFRIIGTLQNSAEFSEAFHCRKNSYMNPEKKCRVW | 0.23 | 2.19 | 2.24 | 0.21 | 0.35 | 0.44 | 0.7 | 0.24 | 0.7 | 0.4
2 | C19 (protein) YPYDVPDYAYPYDVPDYAYPYDVPDYAGSYDDGICKSSDCIKSAARLIQNMDATTEPCTDFFKYACGGWLKRNVIPETSSRYGNFDILRDELEVVLKDVLQEPKTEDIVAVQKAKALYRSCINESAIDSRGGEPLLKLLPDIYGWPVATENWEQKYGASWTAEKAIAQLNSKYGKKVLINLFVGTDDKNSVNHVIHIDQPRLGLPSGDYYECTGIYKEACTAYVDFMISVARLIRQEERLPIDENQLALEMNKVMELEKEIANATAKPEDRNDPMLLYNKMTLAQIQNNFSLEINGKPFSWLNFTNEIMSTVNISITNEEDVVVYAPEYLTKLKPILTKYSARDLQNLMSWRFIMDLVSSLSRTYKESRNAFRKALYVTTSETATWRRCANYVNGNMMNAVGRLYVEAAFAGESKHVVEDLIAQIREVFIQTLDDLTWMDAETKKRAEEKALAIKERIGYPDDIVSNDNKLNNEYLELNYKEDEYFENIIQNLKFSQSKQLKKLREKVDKDEWISGAAVVNAFYSSGRNQIVFPAGILQPPFFSAQQSNSLNYGGIGMVIGHEITHGFMDNGRNPNKDLDLVDWWTQQSASNFKEQSQCMVYQYGNFSWDLAGGQHLNGINTLGENIADNGGLGQAYRAYQNYIKKNGEEKLLPGLDLNHKQLFFLNFAQVWCGTYRPEYAVNSIKTDVHSPKNFRIIGTLQNSAEFSEAFHCRKNSYMNPEKKCRVW | 0.19 | 2.34 | 2.33 | 0.15 | 0.29 | 0.33 | 0.34 | 0.24 | 0.67 | 0.29
3 | C18 (protein) YPYDVPDYAYPYDVPDYAYPYDVPDYAGSYDDGICKSSDCIKSAARLIQNMDATTEPCTDFFKYACGGWLKRNVIPETSSRYGNFDILRDELEVVLKDVLQEPKTEDIVAVQKAKALYRSCINESAIDSRGGEPLLKLLPDIYGWPVATENWEQKYGASWTAEKAIAQLNSKYGKKVLINLFVGTDDKNSVNHVIHIDQPRLGLPSGDYYECTGIYKEACTAYVDFMISVARLIRQEERLPIDENQLALEMNKVMELEKEIANATAKPEDRNDPMLLYNKMTLAQIQNNFSLEINGKPFSWLNFTNEIMSTVNISITNEEDVVVYAPEYLTKLKPILTKYSARDLQNLMSWRFIMDLVSSLSRTYKESRNAFRKALYVTTSETATWRRCANYVNGNMMNAVGRLYVEAAFAGESKHVVEDLIAQIREVFIQTLDDLTWMDAETKKRAEEKALAIKERIGYPDDIVSNDNKLNNEYLELNYKEDEYFENIIQNLKFSQSKQLKKLREKVDKDEWISGAAVVNAFYSSGRNQIVFPAGILQPPFFSAQQSNSLNYGGIGMVIGHEITHGFMDNVRNFNKDWDLVDWWTQQSASNFKEQSQCMVYQYGNFSWDLAGGQHLNGINTLGENIADNGGLGQAYRAYQNYIKKNGEEKLLPGLDLNHKQLFFLNFAQVWCGTYRPEYAVNSIKTDVHSPKNFRIIGTLQNSAEFSEAFHCRKNSYMNPEKKCRVW | 0.26 | 2.29 | 2.56 | 0.16 | 0.36 | 0.5 | 0.67 | 0.24 | 0.59 | 0.73
4 | C17 (protein) YPYDVPDYAYPYDVPDYAYPYDVPDYAGSYDDGICKSSDCIKSAARLIQNMDATTEPCTDFFKYACGGWLKRNVIPETSSRYGNFDILRDELEVVLKDVLQEPKTEDIVAVQKAKALYRSCINESAIDSRGGEPLLKLLPDIYGWPVATENWEQKYGASWTAEKAIAQLNSKYGKKVLINLFVGTDDKNSVNHVIHIDQPRLGLPSGDYYECTGIYKEACTAYVDFMISVARLIRQEERLPIDENQLALEMNKVMELEKEIANATAKPEDRNDPMLLYNKMTLAQIQNNFSLEINGKPFSWLNFTNEIMSTVNISITNEEDVVVYAPEYLTKLKPILTKYSARDLQNLMSWRFIMDLVSSLSRTYKESRNAFRKALYVTTSETATWRRCANYVNGNMMNAVGRLYVEAAFAGESKHVVEDLIAQIREVFIQTLDDLTWMDAETKKRAEEKALAIKERIGYPDDIVSNDNKLNNEYLELNYKEDEYFENIIQNLKFSQSKQLKKLREKVDKDEWISGAAVVNAFYSSGRNQIVFPAGILQPPFFSAQQSNSLNYGGIGMVIGHEITHGFMDNVRNPNKDGDLVDWWTQQSASNFKEQSQCMVYQYGNFSWDLAGGQHLNGINTLGENIADNGGLGQAYRAYQNYIKKNGEEKLLPGLDLNHKQLFFLNFAQVWCGTYRPEYAVNSIKTDVHSPKNFRIIGTLQNSAEFSEAFHCRKNSYMNPEKKCRVW | 0.33 | 3.13 | 3.28 | 0.27 | 0.47 | 0.49 | 0.57 | 0.24 | 0.7 | 0.33
